Source: patent US20190284293A1, “COMBINATION THERAPY WITH ANTI-CD73 ANTIBODIES” (BRISTOL-MYERS SQUIBB COMPANY, priority 2016, published 2019)

T1: CD32a-R131 (FcgRIIa-R131) (Homo sapiens, UniProt P12318, H167R)
T1 sequence (P12318 34-217 H167R limits assumed): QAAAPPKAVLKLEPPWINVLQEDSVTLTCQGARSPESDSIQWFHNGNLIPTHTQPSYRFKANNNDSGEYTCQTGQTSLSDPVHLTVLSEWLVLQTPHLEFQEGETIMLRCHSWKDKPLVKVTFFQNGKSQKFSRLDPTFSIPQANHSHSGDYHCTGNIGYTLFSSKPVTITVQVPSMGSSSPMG

T2: CD32a-H131 (FcgRIIa-H131) (Homo sapiens, UniProt P12318)
T2 sequence (P12318 34-217 limits assumed): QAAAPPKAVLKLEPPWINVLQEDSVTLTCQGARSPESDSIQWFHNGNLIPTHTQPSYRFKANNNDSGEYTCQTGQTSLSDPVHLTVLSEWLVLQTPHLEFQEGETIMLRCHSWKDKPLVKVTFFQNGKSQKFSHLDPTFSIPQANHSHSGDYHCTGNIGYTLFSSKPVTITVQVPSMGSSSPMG

T3: CD32b (FcgRIIb) (Homo sapiens, UniProt P31994)
T3 sequence (P31994 43-310): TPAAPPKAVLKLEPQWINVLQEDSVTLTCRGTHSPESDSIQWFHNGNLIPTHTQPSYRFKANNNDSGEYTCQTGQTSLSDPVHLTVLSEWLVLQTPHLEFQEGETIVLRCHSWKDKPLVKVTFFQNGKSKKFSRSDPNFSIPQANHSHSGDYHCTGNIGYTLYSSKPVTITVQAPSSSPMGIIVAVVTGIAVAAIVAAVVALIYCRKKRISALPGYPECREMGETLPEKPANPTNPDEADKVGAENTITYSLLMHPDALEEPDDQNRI


Key:
Assay in all cases: SPR, antibody binding to anti-his Fab captured FcgR-his (% Rmax)
Conditions in all cases: 1 μM antibody
CD16B-NA2 (FcgRIIIb-NA2) = CD16B-NA2 (FcgRIIIb-NA2) (Homo sapiens, UniProt O75015)
CD16B-NA2 (FcgRIIIb-NA2), sequence (O75015 17-200 limits assumed): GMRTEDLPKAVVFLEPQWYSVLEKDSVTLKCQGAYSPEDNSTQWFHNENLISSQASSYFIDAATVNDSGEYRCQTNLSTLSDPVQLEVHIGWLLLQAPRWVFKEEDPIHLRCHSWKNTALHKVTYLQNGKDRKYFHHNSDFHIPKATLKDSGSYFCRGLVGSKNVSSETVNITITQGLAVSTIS
Procedure: (§1) The binding of antibodies to Fc gamma receptors (FcγRs or FcgRs) was studied using biosensor technologies including Biacore surface plasmon resonance (SPR) and Fortebio Biolayer Interferometry (BLI). SPR studies were performed on a Biacore T100 instrument (GE Healthcare) at 25° C. The Fab fragment from a murine anti-6×His antibody was immobilized on a CM5 sensor chip using EDC/NHS to a density of −3000 RU. Various his-tagged FcgRs (7 ug/ml) were captured via the C-terminal his-tag using a contact time of 30 s at 10 ul/min, and the binding of 1.0 μM antibody was evaluated in a running buffer of 10 mM NaPO4, 130 mM NaCl, 0.05% p20 (PBS-T) pH 7.1. FcgRs used for these experiments included CD64 (FcgRI), CD32a-H131 (FcgRIIa-H131), CD32a-R131 (FcgRIIa-R131), CD32b (FcgRIIb), CD16a-V158 (FcgRIIIa-V158), CD16b-NA1 (FcgRIIIb-NA1), and CD16B-NA2 (FcgRIIIb-NA2). BLI experiments were performed on a Fortebio Octet RED instrument (Pall, Fortebio) at 25° C. in 10 mM NaPO4, 130 mM NaCl, 0.05% p20 (PBS-T) pH 7.1. Antibodies were captured out of undiluted expression supernatants on protein A coated sensors, followed by the binding of 1 μM hCD32a-H131, hCD32a-R131, hCD32b, hCD16a-V158, or 0.1 μM hCD64 analytes.

CD64 (FcgRI) = CD64 (FcgRI) (Homo sapiens, UniProt P12314)
CD64 (FcgRI), sequence (P12314 16-374): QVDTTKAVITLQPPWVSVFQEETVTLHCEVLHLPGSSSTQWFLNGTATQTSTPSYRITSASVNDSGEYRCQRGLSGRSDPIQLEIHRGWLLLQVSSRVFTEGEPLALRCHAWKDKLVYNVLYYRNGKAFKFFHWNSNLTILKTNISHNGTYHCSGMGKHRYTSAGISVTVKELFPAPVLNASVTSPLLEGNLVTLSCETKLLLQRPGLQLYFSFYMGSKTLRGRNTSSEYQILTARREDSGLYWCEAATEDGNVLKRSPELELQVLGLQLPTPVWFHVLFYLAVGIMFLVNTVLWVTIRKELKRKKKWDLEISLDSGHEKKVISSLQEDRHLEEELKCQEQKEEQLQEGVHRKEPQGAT
Procedure: as §1

[1] = biological target: T1, CD32a-R131 (FcgRIIa-R131)
Procedure: as §1

[2] = biological target: T2, CD32a-H131 (FcgRIIa-H131)
Procedure: as §1

[3] = biological target: CD16a-V158 (FcgRIIIa-V158) (Homo sapiens, UniProt P08637, F176V)
CD16a-V158 (FcgRIIIa-V158), sequence (P08637 17-208 F176V limits assumed): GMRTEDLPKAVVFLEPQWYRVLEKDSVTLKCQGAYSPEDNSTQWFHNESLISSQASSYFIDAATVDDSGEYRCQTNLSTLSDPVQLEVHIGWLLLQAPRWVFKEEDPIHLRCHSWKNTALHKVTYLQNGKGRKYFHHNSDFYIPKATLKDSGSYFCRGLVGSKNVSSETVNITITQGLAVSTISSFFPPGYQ
Procedure: as §1

CD32b (FcgRIIb) = biological target: T3, CD32b (FcgRIIb)
Procedure: as §1

Molecule	% Rmax hCD16B-NA2 (CD16B-NA2 (FcgRIIIb-NA2)) [%]	% Rmax hCD64 (CD64 (FcgRI)) [%]	% Rmax hCD32a-R131 [1] [%]	% Rmax hCD32a-H131 [2] [%]	% Rmax hCD16a-V158 [3] [%]	% Rmax hCD32b (CD32b (FcgRIIb)) [%]
mAb5-IgG2.3 (protein, left off: another chain or arm of the molecule) constant: ASTKGPSVFPLAPCSRSTSESTAALGCLVKDYFPEPVTVSWNSGALTSGVHTFPAVLQSSGLYSLSSVVTVPSSNFGTQTYTCNVDHKPSNTKVDKTVERKSCVECPPCPAPPVAGPSVFLFPPKPKDTLMISRTPEVTCVVVDVSHEDPEVQFNWYVDGVEVHNAKTKPREEQFNSTFRVVSVLTVVHQDWLNGKEYKCKVSNKGLPAPIEKTISKTKGQPREPQVYTLPPSREEMTKNQVSLTCLVKGFYPSDIAVEWESNGQPENNYKTTPPMLDSDGSFFLYSKLTVDKSRWQQGNVFSCSVMHEALHNHYTQKSLSLSPGK	0	6	30	100	3	4
mAb6-IgG2.3 (protein, left off: another chain or arm of the molecule) constant: ASTKGPSVFPLAPCSRSTSESTAALGCLVKDYFPEPVTVSWNSGALTSGVHTFPAVLQSSGLYSLSSVVTVPSSNFGTQTYTCNVDHKPSNTKVDKTVERKSCVECPPCPAPPVAGPSVFLFPPKPKDTLMISRTPEVTCVVVDVSHEDPEVQFNWYVDGVEVHNAKTKPREEQFNSTFRVVSVLTVVHQDWLNGKEYKCKVSNKGLPAPIEKTISKTKGQPREPQVYTLPPSREEMTKNQVSLTCLVKGFYPSDIAVEWESNGQPENNYKTTPPMLDSDGSFFLYSKLTVDKSRWQQGNVFSCSVMHEALHNHYTQKSLSLSPGK	0	3	14	66	1	3
mAb4-IgG2.3 (protein, left off: another chain or arm of the molecule) constant: ASTKGPSVFPLAPCSRSTSESTAALGCLVKDYFPEPVTVSWNSGALTSGVHTFPAVLQSSGLYSLSSVVTVPSSNFGTQTYTCNVDHKPSNTKVDKTVERKSCVECPPCPAPPVAGPSVFLFPPKPKDTLMISRTPEVTCVVVDVSHEDPEVQFNWYVDGVEVHNAKTKPREEQFNSTFRVVSVLTVVHQDWLNGKEYKCKVSNKGLPAPIEKTISKTKGQPREPQVYTLPPSREEMTKNQVSLTCLVKGFYPSDIAVEWESNGQPENNYKTTPPMLDSDGSFFLYSKLTVDKSRWQQGNVFSCSVMHEALHNHYTQKSLSLSPGK	0	1	6	39	1	1
mAb8-IgG2.3G1-AY-V27 (protein, left off: another chain or arm of the molecule) constant: ASTKGPSVFPLAPCSRSTSESTAALGCLVKDYFPEPVTVSWNSGALTSGVHTFPAVLQSSGLYSLSSVVTVPSSNFGTQTYTCNVDHKPSNTKVDKTVERKSCVECPPCPAPELLGGPSVFLFPPKPKDTLMISRTPEVTCVVVDVEHEDPEVKFNWYVDGVEVHNAKTKPREEQYNSTYRVVSVLTVLHQDWLNGKEYKCKVSNKALPAPIEKTISKAKGQPREPQVYTLPPSREEMTKNQVSLTCLVKGFYPSDIAVEWESNGQPENNYKTTPPVLDSDGSFFLYSKLTVDKSRWQQGNVFSCSVMHEALHNHYTQKSLSLSPGK	7	78	80	67	–	67
mAb10-IgG2.3G1-AY-V27 (protein, left off: another chain or arm of the molecule) constant: ASTKGPSVFPLAPCSRSTSESTAALGCLVKDYFPEPVTVSWNSGALTSGVHTFPAVLQSSGLYSLSSVVTVPSSNFGTQTYTCNVDHKPSNTKVDKTVERKSCVECPPCPAPELLGGPSVFLFPPKPKDTLMISRTPEVTCVVVDVEHEDPEVKFNWYVDGVEVHNAKTKPREEQYNSTYRVVSVLTVLHQDWLNGKEYKCKVSNKALPAPIEKTISKAKGQPREPQVYTLPPSREEMTKNQVSLTCLVKGFYPSDIAVEWESNGQPENNYKTTPPVLDSDGSFFLYSKLTVDKSRWQQGNVFSCSVMHEALHNHYTQKSLSLSPGK	3	69	57	–	12	40

Further lines, results first:

% Rmax hCD16B-NA2 (CD16B-NA2 (FcgRIIIb-NA2)) [%]	% Rmax hCD64 (CD64 (FcgRI)) [%]	% Rmax hCD32a-R131 [1] [%]	% Rmax hCD32a-H131 [2] [%]	% Rmax hCD16a-V158 [3] [%]	% Rmax hCD32b (CD32b (FcgRIIb)) [%]	Molecule
0	2	17	44	1	5	mAb11-IgG2.3 (protein, left off: another chain or arm of the molecule) constant: ASTKGPSVFPLAPCSRSTSESTAALGCLVKDYFPEPVTVSWNSGALTSGVHTFPAVLQSSGLYSLSSVVTVPSSNFGTQTYTCNVDHKPSNTKVDKTVERKSCVECPPCPAPPVAGPSVFLFPPKPKDTLMISRTPEVTCVVVDVSHEDPEVQFNWYVDGVEVHNAKTKPREEQFNSTFRVVSVLTVVHQDWLNGKEYKCKVSNKGLPAPIEKTISKTKGQPREPQVYTLPPSREEMTKNQVSLTCLVKGFYPSDIAVEWESNGQPENNYKTTPPMLDSDGSFFLYSKLTVDKSRWQQGNVFSCSVMHEALHNHYTQKSLSLSPGK
0	1	5	–	1	1	mAb10-IgG2.5 (protein, left off: another chain or arm of the molecule) constant: ASTKGPSVFPLAPSSRSTSESTAALGCLVKDYFPEPVTVSWNSGALTSGVHTFPAVLQSSGLYSLSSVVTVPSSNFGTQTYTCNVDHKPSNTKVDKTVERKCCVECPPCPAPPVAGPSVFLFPPKPKDTLMISRTPEVTCVVVDVSHEDPEVQFNWYVDGVEVHNAKTKPREEQFNSTFRVVSVLTVVHQDWLNGKEYKCKVSNKGLPAPIEKTISKTKGQPREPQVYTLPPSREEMTKNQVSLTCLVKGFYPSDIAVEWESNGQPENNYKTTPPMLDSDGSFFLYSKLTVDKSRWQQGNVFSCSVMHEALHNHYTQKSLSLSPGK
0	1	6	–	1	1	mAb12-IgG2.5 (protein, left off: another chain or arm of the molecule) constant: ASTKGPSVFPLAPSSRSTSESTAALGCLVKDYFPEPVTVSWNSGALTSGVHTFPAVLQSSGLYSLSSVVTVPSSNFGTQTYTCNVDHKPSNTKVDKTVERKCCVECPPCPAPPVAGPSVFLFPPKPKDTLMISRTPEVTCVVVDVSHEDPEVQFNWYVDGVEVHNAKTKPREEQFNSTFRVVSVLTVVHQDWLNGKEYKCKVSNKGLPAPIEKTISKTKGQPREPQVYTLPPSREEMTKNQVSLTCLVKGFYPSDIAVEWESNGQPENNYKTTPPMLDSDGSFFLYSKLTVDKSRWQQGNVFSCSVMHEALHNHYTQKSLSLSPGK
